Test results from the RNAGym collection of RNA variant scans (doi:10.1021/acssynbio.7b00057).

B1: Pistol ribozyme (parent)
chain: GGGUCGUUGUUCCAUAAUCGCGUGGAUAUGGCACGCAAGUUUCUACCGGGCACCGUAAAUGUCCGACUGGAGCCGUUCGGGCGGCUAUAAACAGACCUCAGGCCCGAAGCGUGGCGGCACCUGCCGCCGGUGGUAAAAAAGAUCGGAAGAGCACACGUCU

Variants of: B1
Assay: aptazyme ON/OFF ratio, guanine; higher = stronger switching; co-transcriptional cleavage with and without guanine

| Variant | aptazyme ON/OFF ratio |
| --- | --- |
| U7G U8A G9A U10C U11A C12G | 1.15 |
| U7G U8A G9A U10C U11A C12A | 1.12 |
| U7G U8A G9A U10C U11A C12U | 1.08 |
| U7G U8A C12G C13U | 1.46 |
| U7G U8A C12G C13A | 1.51 |
| U7G U8A C12G C13G | 1.17 |
| U7G U8A G9A U10A U11C C12G C13U | 1.1 |
| U7G U8A G9A U10A U11C C12G C13G | 1.05 |
| U7G U8A G9A U10A U11C C12G C13A | 1.11 |
| U7G G9U U10G U11G C12G C13U | 1.27 |
| U7G G9U U10G U11G C12G C13A | 1.1 |
| U7G G9U U10G U11G C12G C13G | 1.17 |
| U7G G9U U10C U11C C13G | 1.07 |
| U7G G9U U10C U11C C13A | 1.05 |
| U7G G9U U10C U11C C13U | 1.09 |
| U7G U8A G9A C13G | 1.09 |
| U7G U8A G9A C13A | 1.25 |
| U7G U8A G9A C13U | 1.23 |
| U7G U8A G9A U10A U11A C12G C13A | 1.1 |
| U7G U8A G9A U10A U11A C12G C13U | 1.14 |
| U7G U8A G9A U10A U11A C12G C13G | 1.15 |
| U7G U8A G9A U10C C13A | 1.09 |
| U7G U8A G9A U10C C13U | 1.13 |
| U7G U8A G9A U10C C13G | 1.07 |

| Variant | aptazyme ON/OFF ratio |
| --- | --- |
| U7G U8A G9A C12A C13U | 1.1 |
| U7G U8A G9A C12A C13G | 1.11 |
| U7G U8A G9A C12A C13A | 1.25 |
| U7G U8A G9A U10A U11C C12G | 1.07 |
| U7G U8A G9A U10A U11C C12A | 1.12 |
| U7G U8A G9A U10A U11C C12U | 1.04 |
| U7G U8A G9A U10C C12G C13G | 1.11 |
| U7G U8A G9A U10C C12G C13A | 1.11 |
| U7G U8A G9A U10C C12G C13U | 1.28 |
| U7G U8A G9A U10A C13U | 1.11 |
| U7G U8A G9A U10A C13A | 1.19 |
| U7G U8A G9A U10A C13G | 1.1 |
| U7G U8A G9A U10G C12G C13A | 1.1 |
| U7G U8A G9A U10G C12G C13G | 1.09 |
| U7G U8A G9A U10G C12G C13U | 1.23 |
| U7G G9U U10G C12U C13G | 1.34 |
| U7G G9U U10G C12U C13A | 1.28 |
| U7G G9U U10G C12U C13U | 1.25 |
| U7G G9U U11A C12A C13G | 1.23 |
| U7G G9U U11A C12A C13A | 1.3 |
| U7G G9U U11A C12A C13U | 1.43 |
| U7G G9U U10G C13A | 1.39 |
| U7G G9U U10G C13G | 1.21 |
| U7G G9U U10G C13U | 1.48 |

| Variant | aptazyme ON/OFF ratio |
| --- | --- |
| U7G U8A G9A U10C U11G C12U C13U | 1.12 |
| U7G U8A G9A U10C U11G C12U C13A | 1.1 |
| U7G U8A G9A U10C U11G C12U C13G | 1.14 |
| U7G G9U U10C U11G C12U C13U | 1.22 |
| U7G G9U U10C U11G C12U C13A | 1.22 |
| U7G G9U U10C U11G C12U C13G | 1.23 |
| U7G U8A G9A U10A C12G | 1.19 |
| U7G U8A G9A U10A C12A | 1.17 |
| U7G U8A G9A U10A C12U | 1.19 |
| U7G G9U U10C U11C C12G C13G | 1.2 |
| U7G G9U U10C U11C C12G C13U | 1.31 |
| U7G G9U U10C U11C C12G C13A | 1.17 |
| U7G G9U U10C U11C C12A C13G | 1.4 |
| U7G G9U U10C U11C C12A C13U | 1.47 |
| U7G G9U U10C U11C C12A C13A | 1.37 |
| U7G U8A G9A U10C U11A C13G | 1.07 |
| U7G U8A G9A U10C U11A C13U | 1.12 |
| U7G U8A G9A U10C U11A C13A | 1.08 |
| U7G U8A G9A U10C U11C C12G C13G | 1.03 |
| U7G U8A G9A U10C U11C C12G C13A | 1.09 |
| U7G U8A G9A U10C U11C C12G C13U | 1.08 |
| U7G U8A G9A U10C U11G C13U | 1.09 |
| U7G U8A G9A U10C U11G C13A | 1.14 |
| U7G U8A G9A U10C U11G C13G | 1.15 |

| Variant | aptazyme ON/OFF ratio |
| --- | --- |
| U7G G9U U10C U11G C12A C13U | 1.16 |
| U7G G9U U10C U11G C12A C13G | 1.13 |
| U7G G9U U10C U11G C12A C13A | 1.1 |
| U7G U8A G9A U10C U11A C12U C13G | 1.03 |
| U7G U8A G9A U10C U11A C12U C13A | 1.09 |
| U7G U8A G9A U10C U11A C12U C13U | 1.05 |
| U7G G9U U10G C12G | 1.36 |
| U7G G9U U10G C12A | 1.7 |
| U7G G9U U10G C12U | 1.55 |
| U7G G9U U10G U11A C12U C13U | 1.23 |
| U7G G9U U10G U11A C12U C13G | 1.17 |
| U7G G9U U10G U11A C12U C13A | 1.17 |
| U7G G9U U10G U11C C12A C13A | 1.14 |
| U7G G9U U10G U11C C12A C13G | 1.23 |
| U7G G9U U10G U11C C12A C13U | 1.33 |
| U7G G9U U10C U11G C13A | 1.32 |
| U7G G9U U10C U11G C13U | 1.38 |
| U7G G9U U10C U11G C13G | 1.22 |
| U7G U8A G9A U10C C12A C13A | 1.07 |
| U7G U8A G9A U10C C12A C13G | 1.06 |
| U7G U8A G9A U10C C12A C13U | 1.08 |
| U7G G9U U10G U11A C12A | 1.15 |
| U7G G9U U10G U11A C12G | 1.26 |
| U7G G9U U10G U11A C12U | 1.27 |

| Variant | aptazyme ON/OFF ratio |
| --- | --- |
| U7G U8A G9A U10A U11C C12U C13U | 1.11 |
| U7G U8A G9A U10A U11C C12U C13A | 1.07 |
| U7G U8A G9A U10A U11C C12U C13G | 1.1 |
| U7G U8A G9A U10A U11G C12A C13G | 1.06 |
| U7G U8A G9A U10A U11G C12A C13A | 1.07 |
| U7G U8A G9A U10A U11G C12A C13U | 1.07 |
| U7G G9U U11G C12G C13G | 1.21 |
| U7G G9U U11G C12G C13U | 1.29 |
| U7G G9U U11G C12G C13A | 1.19 |
| U7G G9U U11G C13G | 1.3 |
| U7G G9U U11G C13A | 1.3 |
| U7G G9U U11G C13U | 1.26 |
| U7G G9U U11G | 2.13 |
| U7G G9U U11A | 1.42 |
| U7G G9U U11C | 4.69 |
| U7G G9U U11C C12U | 2.32 |
| U7G G9U U11C C12G | 1.74 |
| U7G G9U U11C C12A | 1.61 |
| U7G G9U U10G U11G C12A C13G | 1.07 |
| U7G G9U U10G U11G C12A C13A | 1.11 |
| U7G G9U U10G U11G C12A C13U | 1.19 |
| U7G U8A G9A C12A | 1.06 |
| U7G U8A G9A C12U | 1.12 |
| U7G U8A G9A C12G | 1.18 |

| Variant | aptazyme ON/OFF ratio |
| --- | --- |
| U7G U8A C13U | 0.972 |
| U7G U8A C13G | 1.41 |
| U7G U8A C13A | 1.35 |
| U7G U8A G9A U10C U11C C12U C13G | 1.02 |
| U7G U8A G9A U10C U11C C12U C13A | 1.08 |
| U7G U8A G9A U10C U11C C12U C13U | 1.03 |
| U7G G9U U11C C13U | 1.65 |
| U7G G9U U11C C13A | 1.37 |
| U7G G9U U11C C13G | 1.05 |
| U7G U8A G9A U10A U11C C13A | 1.1 |
| U7G U8A G9A U10A U11C C13G | 1.08 |
| U7G U8A G9A U10A U11C C13U | 1.05 |
| U7G G9U U10G U11C | 1.13 |
| U7G G9U U10G U11A | 1.23 |
| U7G G9U U10G U11G | 1.74 |
| U7G G9U U10G U11A C12G C13A | 1.19 |
| U7G G9U U10G U11A C12G C13G | 1.17 |
| U7G G9U U10G U11A C12G C13U | 1.18 |
| U7G U8A G9A U10A U11A C12U C13A | 1.15 |
| U7G U8A G9A U10A U11A C12U C13U | 1.19 |
| U7G U8A G9A U10A U11A C12U C13G | 1.12 |
| U7G G9U U11G C12U C13U | 1.44 |
| U7G G9U U11G C12U C13A | 1.31 |
| U7G G9U U11G C12U C13G | 1.37 |

| Variant | aptazyme ON/OFF ratio |
| --- | --- |
| U7G U8A G9A U10G U11A C12G C13G | 1.29 |
| U7G U8A G9A U10G U11A C12G C13A | 1.04 |
| U7G U8A G9A C12G C13A | 1.13 |
| U7G U8A G9A C12G C13U | 1.11 |
| U7G U8A G9A C12G C13G | 1.04 |
| U7G U8A G9A U10A U11G C12G | 1.2 |
| U7G U8A G9A U10A U11G C12A | 1.06 |
| U7G U8A G9A U10A U11G C12U | 1.65 |
| U7G G9U U10G U11G C13U | 1.3 |
| U7G G9U U10G U11G C13G | 1.18 |
| U7G G9U U10G U11G C13A | 1.22 |
| U7G U8A G9A U10C U11A C12G C13U | 1.12 |
| U7G U8A G9A U10C U11A C12G C13G | 1.07 |
| U7G U8A G9A U10C U11A C12G C13A | 1.11 |
| U7G G9U U10G U11C C12G | 1.48 |
| U7G G9U U10G U11C C12A | 1.62 |
| U7G G9U U10G U11C C12U | 1.17 |
| U7G G9U U10G U11G C12A | 1.11 |
| U7G G9U U10G U11G C12G | 1.16 |
| U7G G9U U10G U11G C12U | 1.29 |
| U7G U8A G9A U10A C12U C13U | 1.03 |
| U7G U8A G9A U10A C12U C13G | 1.07 |
| U7G U8A G9A U10A C12U C13A | 1.13 |
